Test results taken from PMC5606850, “Acidic C-terminal domains autoregulate the RNA chaperone Hfq” (eLife, 2017).

Columns and labels:
Hfq102 (wild-type Hfq) [1] = molecular target: T1, Hfq102 (wild-type Hfq) (Escherichia coli, UniProt P0A6X3 1-102); test: EMSA; 33.3 nM hexamer, 10 C; less ternary complex than Hfq65; Anisotropy: 10 mM Tris-HCl pH 7.5, 50 mM NaCl, 50 mM KCl, 30 C; CTD-FITC competition: 50 mM Tris-HCl pH 7.5, 30 C; pUC19 EMSA: 40 mM Tris-HCl pH 7.5, 0.14 mM EDTA, 35 mM NH4Cl, 3.7% glycerol, 25 C (competition legend 30 C); details: protein: recombinant; tags: untagged; chain copies: 6; label: 32P on ChiX; partial RNA-RNA duplex
[2] = molecular target: Hfq65 (Hfq core, CTD deleted) (Escherichia coli, UniProt P0A6X3 1-65); test: EMSA; 33.3 nM hexamer, 10 C; most stable ternary complex; Anisotropy: 10 mM Tris-HCl pH 7.5, 50 mM NaCl, 50 mM KCl, 30 C; CTD-FITC competition: 50 mM Tris-HCl pH 7.5, 30 C; pUC19 EMSA: 40 mM Tris-HCl pH 7.5, 0.14 mM EDTA, 35 mM NH4Cl, 3.7% glycerol, 25 C (competition legend 30 C); details: protein: recombinant; tags: untagged; chain copies: 6; label: 32P on ChiX; partial RNA-RNA duplex
Hfq102 (wild-type Hfq) [3] = molecular target: T1, Hfq102 (wild-type Hfq); test: fluorescence anisotropy; Hill 1.4; asterisked value, footnote not in material (possibly earlier work); Anisotropy: 10 mM Tris-HCl pH 7.5, 50 mM NaCl, 50 mM KCl, 30 C; CTD-FITC competition: 50 mM Tris-HCl pH 7.5, 30 C; pUC19 EMSA: 40 mM Tris-HCl pH 7.5, 0.14 mM EDTA, 35 mM NH4Cl, 3.7% glycerol, 25 C (competition legend 30 C); details: protein: recombinant; tags: untagged; chain copies: 6; label: Cy3; hairpin with 5' overhang
[4] = system: RNA molecular beacon and Target RNA; details: ref Zheng et al., 2016; cited from earlier work

B1: ChiX·chiP sRNA-mRNA pair (mixed)
RNA 1: GGGACACCGUCGCUUAAAGUGACGGCAUAAUAAUAAAAAAAUGAAAUUCCUCUUUGACGGGCCAAUAGCGAUAUUGGCCAUUUUUUU
RNA 2: GUAGUCAGCGAGACUUUUCUCAACGCUACUUUUUUAAUUUUUAUUUUUUCGCUGUUCACCUUUGGUGCAGCAAUUUAUACGUCAAAGAGGAUUAACCCAUGCGUACGUUUAGUGGC
B1: binds (Hfq102 (wild-type Hfq) [1]); binds [2].

CUUCCGUCCAUUUCGGACG (structured_RNA, 5' Thiol-C6) [minRCRB-Cy3] showed a Kd (Hfq102 (wild-type Hfq) [3]) of 13.9 ± 1.5 nM hexamer.

B2: Bacillus subtilis Hfq: Hfq of Bacillus subtilis (protein, UniProt O31796 1-73, looked up)
RNA-binding protein Hfq: MKPINIQDQFLNQIRKENTYVTVFLLNGFQLRGQVKGFDNFTVLLESEGKQQLIYKHAISTFAPQKNVQLELE
In the case of B2, the “in vitro RNA annealing activity” value [4] is listed as “inactive”.
